For assay [1], the target named is gelatin derived from type I collagen from rat tail (acetylated collagen denatured at 95 °C for 10 min) (rat) (UniProt P02454).
Assay [2] has as its target acetylated, soluble type I collagen from rat tail, natively folded (triple-helical) (rat) (UniProt P02454).

Take “ColG collagenase unit from Clostridium histolyticum (from UniProt Q9X721 119-789) (enzyme)”: the KM of gelatin degradation (Michaelis-Menten kinetics, discontinuous cleavage assay with fluorescamine detection of neo-N-termini, 25 °C) in assay [1] was determined as 1.35 µM. Also, the KM of degradation of natively folded type I collagen (Michaelis-Menten kinetics, discontinuous cleavage assay with fluorescamine detection of neo-N-termini, 25 °C) in assay [2] was determined as 3.4 µM.
With “ColQ1 collagenase unit (Y94-G765) from Bacillus cereus strain Q1 (from UniProt B9J3S4 94-765) (enzyme)”, the KM of gelatin degradation (Michaelis-Menten kinetics, discontinuous cleavage assay with fluorescamine detection of neo-N-termini, 25 °C) in assay [1] is 1.36 µM. In addition, the KM of degradation of natively folded type I collagen (Michaelis-Menten kinetics, discontinuous cleavage assay with fluorescamine detection of neo-N-termini, 25 °C) in assay [2] was 1.72 µM.

The record behind these values is publication PMC7893005.
